We go through eight molecules from publication PMC6451138 (Nucleic Acids Research, 2019).

Where only a bound is given, the exact number is not on record here.

The target of data set [1] is exonuclease deficient AtPolIB (AtPolIB exo-) (Arabidopsis thaliana). Put plainly: SEC-MALS. A general note: Size exclusion chromatography separates by hydrodynamic size, large species first.
Data set [2] concerns the target AtmtSSB2 (Arabidopsis thaliana). Put plainly: SEC.
Data set [3] deals with AtmtSSB1 (Arabidopsis thaliana). Briefly: SEC.
The target of data set [4] is exonuclease deficient AtPolIB (AtPolIB exo-) (Arabidopsis thaliana). Put plainly: MST.
For data set [5], the target named is T1, AtmtSSB1 (Arabidopsis thaliana, UniProt Q84J78 33-201).
T1 sequence: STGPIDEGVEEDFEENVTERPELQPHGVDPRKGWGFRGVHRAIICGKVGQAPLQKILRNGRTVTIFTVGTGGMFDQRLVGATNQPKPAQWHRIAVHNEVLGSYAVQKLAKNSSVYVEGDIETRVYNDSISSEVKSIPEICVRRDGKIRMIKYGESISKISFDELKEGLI
Briefly: fluorescence anisotropy. (In general: Fluorescence polarisation rises when a labelled molecule tumbles more slowly, as on binding a larger partner.)

The data set “SEC” deals with the molecule itself. Briefly: SEC.
In data set [6] the target is T1, AtmtSSB1. Put plainly: fluorescence anisotropy. This is another data set of the same source.

For the molecule “exonuclease deficient AtPolIB (AtPolIB exo-) (enzyme)”, in data set [1], the stoichiometry N (as a rule, the number of molecules, sites or subunits per partner or assembly) was found to be 2.
With AtmtSSB2 (natural protein), the stoichiometry N in data set [2] was determined as 4.
AtmtSSB1 (natural protein) returned a stoichiometry N in data set [3] of 4. The Kd (commonly the equilibrium constant for the complex coming apart) in data set [4] stood at 1480 nM.

B1: pssDNA-10 (Cy3) (mixed)
DNA 1: AACACTGTGAGCTTAGAGCCCCGGGG
DNA 2: CTAAGCTCACAGTGTT
With B1, in the data set with AtmtSSB1 [5], the binding result is “no binding”.

B2: AtOSB2 (natural protein, Arabidopsis thaliana, UniProt Q8GXH3 21-371, looked up)
chain: ASEITTGKRITSPQIRLYTAAAVGGKTGNGERKQRAKAPAKTPEAVTPVKPLEIASVTATTENELPRPNEIAYESEVANWVNLIGFVDQPVQFEASSDGKFWAGTVISQRSASDSSGFWIPIIFEGDLAKTAARYVSKDDQIHVSGKLFIDSPPPNMTYAQANVQVLVQNLNFIQPMSPSPSPFMVMSSSEKEESGIKKQPARAKQDIVIDEASDSWNHLIENPKEWWDHRENKVNGLVKPRHPDFKSKDSSFSLWLNKAPNWVLPKLEGLEFDVLVPKARVVKQLKGEESWKDLVQNPDKWWDNRIDKRNAKAPDFKHKETGEALWLNESPTWVLPKLPPVKKKQESIVF
In the case of B2, in “SEC”, the “stoichiometry N” value amounted to 4.
As for TTTTTTTTTTTTTTTTTTTTTTTTTTTTTTTTTTTTTTTTTTTTT (ssDNA) [ssDNA(45), Poly-T 45], the affinity with AtmtSSB1 [6], expressed as Kd, was 62.8 ± 3.6 nM.

B3: AtWhirly2 (natural protein, Arabidopsis thaliana, UniProt Q8VYF7 30-238, looked up)
chain: ASWSNSSTPGRGFPGKDAAKPSGRLFAPYSIFKGKAALSVEPVLPSFTEIDSGNLRIDRRGSLMMTFMPAIGERKYDWEKKQKFALSPTEVGSLISMGSKDSSEFFHDPSMKSSNAGQVRKSLSVKPHADGSGYFISLSVNNSILKTNDYFVVPVTKAEFAVMKTAFSFALPHIMGWNRLTGHVNTEALPSRNVSHLKTEPQLELEWDK
Regarding B3, in the data set “SEC”, the “stoichiometry N” value came out at 4. This molecule displayed an equilibrium dissociation constant (Kd) in data set [4] above 250000 nM.

B4: AtOSB3 (natural protein, Arabidopsis thaliana, UniProt Q8GWJ4 62-440, looked up)
chain: VATEKESTPPKKIEYKPEISNWINLIGFVEQPVQFGPCSDGKFWAGTVISQRSGSKSSNFWIPIIFEGDLAKIAVQHVKKEDRIHVSGKLFIDSPPPNVTYSQSNVQVMVQNLNFVQAATSTTKTISPPEKEVTSIKKKPARSKKVKVIDEETSNSWKHLIENPKEWLDHRGNKANGLVKPGHPDFKMKVGGLSLWLSTAPDWALLKLEELKFDVLVPKGNIKLNQLKGEESWKDLVQNPDKWLDNRSDKTNVKYPDFKHKETGEALWMTNSPIWVLSKLPPLKKNQERPFMSNKVSQLELDVEVPKGNLKQLKREEIWKNLVENPSKWWDNRLDKRNPKGPDFKHKETGEALWIGDSPTWALSKLPPLKKNQERPVMA
For B4, the “stoichiometry N” value in the data set “SEC” was determined as 4.
